Data taken from the RNAGym collection of RNA variant scans (doi:10.1021/acssynbio.7b00057).

B1: Pistol ribozyme (parent)
chain: GGGUCGUUGUUCCAUAAUCGCGUGGAUAUGGCACGCAAGUUUCUACCGGGCACCGUAAAUGUCCGACUGGAGCCGUUCGGGCGGCUAUAAACAGACCUCAGGCCCGAAGCGUGGCGGCACCUGCCGCCGGUGGUAAAAAAGAUCGGAAGAGCACACGUCU

Variants of: B1
Test: aptazyme ON/OFF ratio, guanine; higher = stronger switching; co-transcriptional cleavage with and without guanine

Row | Variant | aptazyme ON/OFF ratio
1 | U7C U8C U10C U11G C12A C13A | 1.32
2 | U7C U8C U10C U11G C12A C13G | 1.27
3 | U7C U8C U10C U11G C12A C13U | 1.52
4 | U7C U8C U10G U11A | 1.24
5 | U7C U8C U10G U11G | 1.49
6 | U7C U8C U10G U11C | 1.39
7 | U7C U8C U10G C12A C13U | 1.12
8 | U7C U8C U10G C12A C13A | 1.1
9 | U7C U8C U10G C12A C13G | 1.08
10 | U7C U8G G9A U10C U11G C12A | 1.07
11 | U7C U8G G9A U10C U11G C12G | 1.22
12 | U7C U8G G9A U10C U11G C12U | 1.29
13 | U7C U8C U10C U11G C12G C13U | 1.1
14 | U7C U8C U10C U11G C12G C13G | 1.13
15 | U7C U8C U10C U11G C12G C13A | 1.15
16 | U7C U8G G9A U10G U11C C12U | 1.14
17 | U7C U8G G9A U10G U11C C12G | 1.29
18 | U7C U8G G9A U10G U11C C12A | 1.41
19 | U7C U8C U11C C13A | 1.24
20 | U7C U8C U11C C13G | 1.12
21 | U7C U8C U11C C13U | 1.3

Row | Variant | aptazyme ON/OFF ratio
22 | U7C U8C U10G U11G C12G C13A | 1.13
23 | U7C U8C U10G U11G C12G C13G | 1.11
24 | U7C U8C U10G U11G C12G C13U | 1.14
25 | U7C U8C U10G U11C C12A C13G | 1.11
26 | U7C U8C U10G U11C C12A C13A | 1.16
27 | U7C U8C U10G U11C C12A C13U | 1.15
28 | U7C U8C U11C C12G | 1.16
29 | U7C U8C U11C C12A | 1.33
30 | U7C U8C U11C C12U | 1.34
31 | U7C U8G G9A U10A U11A C12U | 1.18
32 | U7C U8G G9A U10A U11A C12G | 1.1
33 | U7C U8G G9A U10A U11A C12A | 1.26
34 | U7C U8G G9A U10A U11G C12A C13A | 1.13
35 | U7C U8G G9A U10A U11G C12A C13U | 1.16
36 | U7C U8G G9A U10A U11G C12A C13G | 1.19
37 | U7C U8G G9A U10G C12A C13G | 1.08
38 | U7C U8G G9A U10G C12A C13A | 1.12
39 | U7C U8G G9A U10G C12A C13U | 1.36
40 | U7C U8C U11A C12U C13G | 1.13
41 | U7C U8C U11A C12U C13U | 1.37
42 | U7C U8C U11A C12U C13A | 1.16

Row | Variant | aptazyme ON/OFF ratio
43 | U7C U8G C12G C13A | 1.09
44 | U7C U8G C12G C13U | 1.17
45 | U7C U8G C12G C13G | 1.08
46 | U7C U8C U11C | 2.42
47 | U7C U8C U11A | 1.66
48 | U7C U8C U11G | 1.31
49 | U7C U8G C12U C13A | 1.22
50 | U7C U8G C12U C13G | 1.18
51 | U7C U8G C12U C13U | 1.3
52 | U7C U8G G9A U10C U11C C12U C13U | 1.02
53 | U7C U8G G9A U10C U11C C12U C13A | 1.02
54 | U7C U8G G9A U10C U11C C12U C13G | 1.01
55 | U7C U8G G9A U10G U11A C12G C13A | 1.26
56 | U7C U8G G9A U10G U11A C12G C13G | 1.24
57 | U7C U8G G9A U10G U11A C12G C13U | 1.42
58 | U7C U8G G9A U10A U11C C12A | 1.21
59 | U7C U8G G9A U10A U11C C12U | 1.05
60 | U7C U8G G9A U10A U11C C12G | 1.25
61 | U7C U8G G9A U10A U11G C12U C13U | 1.35
62 | U7C U8G G9A U10A U11G C12U C13A | 1.24
63 | U7C U8G G9A U10A U11G C12U C13G | 1.25

Row | Variant | aptazyme ON/OFF ratio
64 | U7C U8G G9A C12A | 1.34
65 | U7C U8G G9A C12G | 1.29
66 | U7C U8G G9A C12U | 1.19
67 | U7C U8G | 1.35
68 | U7C U8G C12G | 1.29
69 | U7C U8G C12U | 2.44
70 | U7C U8G C12A | 1.63
71 | U7C U8C U10C U11C C13U | 1.38
72 | U7C U8G G9A U10C C13G | 1.06
73 | U7C U8G G9A U10C C13A | 1.04
74 | U7C U8G G9A U10C C13U | 1.92
75 | U7C U8G G9A U10A U11A C12A C13G | 1.2
76 | U7C U8G G9A U10A U11A C12A C13A | 1.2
77 | U7C U8G G9A U10A U11A C12A C13U | 1.21
78 | U7C U8C U10G U11G C13G | 1.11
79 | U7C U8C U10G U11G C13A | 1.24
80 | U7C U8C U10G U11G C13U | 1.16
81 | U7C U8C U10G U11G C12U C13U | 1.08
82 | U7C U8C U10G U11G C12U C13A | 1.1
83 | U7C U8C U10G U11G C12U C13G | 1.12
